Key:
[1] = biological target: the molecule itself; experiment: SEC; Superdex 200 10/300 GL; PKD2 52-793 extracted with DDM and reconstituted in amphipol A8-35; Buffer B (25 mM pH 7.4, 150 mM NaCl, 1 mM TCEP, 1 mM CaCl2); oligomer and protomer peaks
[2] = biological target: the molecule itself; experiment: cryo-EM structure; single-particle cryo-EM of variant channels in amphipol A8-35 (0.5 to 1.0 mg/mL), refined with C4 symmetry

Protein | binding result [1] | stoichiometry N [2]
PKD2 WT channel (hPKD2: 52-793) (domain or fragment, human, UniProt Q13563 52-793, looked up, PKD2 (polycystin-2), human, residues 52-793 (hPKD2: 52-793); Construct is Strep-MBP-TEV-PKD2; the Strep tag lies before MBP and the TEV site, so it probably left with MBP on TEV cleavage; The cryo-EM methods give 53-792 for the variants; also called polycystin; source: Expi293F GnTI-/- cells, transient transfection, purified (Strep-Tactin, amphipol A8-35, SEC); not shown: MBP, N-terminal, cleaved) LEIEMQRIRQAAARDPPAGAAASPSPPLSSCSRQAWSRDNPGFEAEEEEEEVEGEEGGMVVEMDVEWRPGSRRSAASSAVSSVGARSRGLGGYHGAGHPSGRRRRREDQGPPCPSPVGGGDPLHRHLPLEGQPPRVAWAERLVRGLRGLWGTRLMEESSTNREKYLKSVLRELVTYLLFLIVLCILTYGMMSSNVYYYTRMMSQLFLDTPVSKTEKTNFKTLSSMEDFWKFTEGSLLDGLYWKMQPSNQTEADNRSFIFYENLLLGVPRIRQLRVRNGSCSIPQDLRDEIKECYDVYSVSSEDRAPFGPRNGTAWIYTSEKDLNGSSHWGIIATYSGAGYYLDLSRTREETAAQVASLKKNVWLDRGTRATFIDFSVYNANINLFCVVRLLVEFPATGGVIPSWQFQPLKLIRYVTTFDFFLAACEIIFCFFIFYYVVEEILEIRIHKLHYFRSFWNCLDVVIVVLSVVAIGINIYRTSNVEVLLQFLEDQNTFPNFEHLAYWQIQFNNIAAVTVFFVWIKLFKFINFNRTMSQLSTTMSRCAKDLFGFAIMFFIIFLAYAQLAYLVFGTQVDDFSTFQECIFTQFRIILGDINFAEIEEANRVLGPIYFTTFVFFMFFILLNMFLAIINDTYSEVKSDLAQQKAEMELSDLIRKGYHKALVKLKLKKNTVDDISESLRQGGGKLNFDELRQDLKGKGHTDAEIEAIFTKYDQDGDQELTEHEHQQMRDDLEKEREDLDLDH | binds | –
PKD2 R638C variant channel (hPKD2: 52-793) (domain or fragment, human, UniProt Q13563 52-793, looked up, PKD2 (polycystin-2), human, residues 52-793, ADPKD germline missense variant R638C in pore helix 1; Construct is Strep-MBP-TEV-PKD2; the Strep tag probably left with MBP on TEV cleavage; The cryo-EM methods give 53-792; the model holds E214-Q694 without M295-A303; source: Expi293F GnTI-/- cells, transient transfection, purified (Strep-Tactin, amphipol A8-35, SEC); not shown: MBP, N-terminal, …) LEIEMQRIRQAAARDPPAGAAASPSPPLSSCSRQAWSRDNPGFEAEEEEEEVEGEEGGMVVEMDVEWRPGSRRSAASSAVSSVGARSRGLGGYHGAGHPSGRRRRREDQGPPCPSPVGGGDPLHRHLPLEGQPPRVAWAERLVRGLRGLWGTRLMEESSTNREKYLKSVLRELVTYLLFLIVLCILTYGMMSSNVYYYTRMMSQLFLDTPVSKTEKTNFKTLSSMEDFWKFTEGSLLDGLYWKMQPSNQTEADNRSFIFYENLLLGVPRIRQLRVRNGSCSIPQDLRDEIKECYDVYSVSSEDRAPFGPRNGTAWIYTSEKDLNGSSHWGIIATYSGAGYYLDLSRTREETAAQVASLKKNVWLDRGTRATFIDFSVYNANINLFCVVRLLVEFPATGGVIPSWQFQPLKLIRYVTTFDFFLAACEIIFCFFIFYYVVEEILEIRIHKLHYFRSFWNCLDVVIVVLSVVAIGINIYRTSNVEVLLQFLEDQNTFPNFEHLAYWQIQFNNIAAVTVFFVWIKLFKFINFNRTMSQLSTTMSRCAKDLFGFAIMFFIIFLAYAQLAYLVFGTQVDDFSTFQECIFTQFCIILGDINFAEIEEANRVLGPIYFTTFVFFMFFILLNMFLAIINDTYSEVKSDLAQQKAEMELSDLIRKGYHKALVKLKLKKNTVDDISESLRQGGGKLNFDELRQDLKGKGHTDAEIEAIFTKYDQDGDQELTEHEHQQMRDDLEKEREDLDLDH | – | 4
PKD2 F629S variant channel (hPKD2: 52-793) (domain or fragment, human, UniProt Q13563 52-793, looked up, PKD2 (polycystin-2), human, residues 52-793, ADPKD germline missense variant F629S in pore helix 1; Construct is Strep-MBP-TEV-PKD2; the Strep tag probably left with MBP on TEV cleavage; The cryo-EM methods give 53-792; the model holds E214-Q694 without M295-A303; source: Expi293F GnTI-/- cells, transient transfection, purified (Strep-Tactin, amphipol A8-35, SEC); not shown: MBP, N-terminal, …) LEIEMQRIRQAAARDPPAGAAASPSPPLSSCSRQAWSRDNPGFEAEEEEEEVEGEEGGMVVEMDVEWRPGSRRSAASSAVSSVGARSRGLGGYHGAGHPSGRRRRREDQGPPCPSPVGGGDPLHRHLPLEGQPPRVAWAERLVRGLRGLWGTRLMEESSTNREKYLKSVLRELVTYLLFLIVLCILTYGMMSSNVYYYTRMMSQLFLDTPVSKTEKTNFKTLSSMEDFWKFTEGSLLDGLYWKMQPSNQTEADNRSFIFYENLLLGVPRIRQLRVRNGSCSIPQDLRDEIKECYDVYSVSSEDRAPFGPRNGTAWIYTSEKDLNGSSHWGIIATYSGAGYYLDLSRTREETAAQVASLKKNVWLDRGTRATFIDFSVYNANINLFCVVRLLVEFPATGGVIPSWQFQPLKLIRYVTTFDFFLAACEIIFCFFIFYYVVEEILEIRIHKLHYFRSFWNCLDVVIVVLSVVAIGINIYRTSNVEVLLQFLEDQNTFPNFEHLAYWQIQFNNIAAVTVFFVWIKLFKFINFNRTMSQLSTTMSRCAKDLFGFAIMFFIIFLAYAQLAYLVFGTQVDDFSTSQECIFTQFRIILGDINFAEIEEANRVLGPIYFTTFVFFMFFILLNMFLAIINDTYSEVKSDLAQQKAEMELSDLIRKGYHKALVKLKLKKNTVDDISESLRQGGGKLNFDELRQDLKGKGHTDAEIEAIFTKYDQDGDQELTEHEHQQMRDDLEKEREDLDLDH | – | 4

— paper PMC12184499, “Pathogenic variants in the polycystin pore helix cause distinct forms of channel dysfunction” (Proceedings of the National Academy of Sciences of the …, 2025)
